In IntAct's records for PubMed 16280320:

B1: Dolichol-phosphate mannosyltransferase subunit 3 (Cricetulus griseus (Chinese hamster)), Q4LDX8 (parent)
chain: MTKLAQWLWGLALLGSAWAALTMGALGLELPFPCQEVLWPLPAYLLVSAGCYALGTVGYRVATFHDCEDAARELQSQILEARADLARRGLRF

Variants of: B1
Conditions: with dpm1_human DPM1, O60762
Chain of dpm1_human DPM1, O60762 (O60762 whole entry): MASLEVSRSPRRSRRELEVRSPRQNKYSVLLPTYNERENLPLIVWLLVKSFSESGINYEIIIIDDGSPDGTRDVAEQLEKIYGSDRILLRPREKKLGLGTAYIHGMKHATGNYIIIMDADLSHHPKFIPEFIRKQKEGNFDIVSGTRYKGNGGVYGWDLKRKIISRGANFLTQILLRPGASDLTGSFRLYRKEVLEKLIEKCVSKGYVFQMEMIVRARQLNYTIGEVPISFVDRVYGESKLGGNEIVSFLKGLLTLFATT

Variant	effect of a mutation on the interaction
MTKLAQWLWGLALLGSAWAALTMGALGLELPFPCQEVLWPLPAYLLVSAGCYALGTVGYRVATFHDCEDAARESQSQTLEARADSARRGLRF [L74S;I78T;L85S]	disrupting interaction
